One block for each molecule: values may come before it.
Assays:
[1] = molecular target: human N-cadherin naturally expressed on DX3 melanoma cells (human) (UniProt P19022); assay: adhesion of DX3 cells to coated monomeric N-cadherin-Fc, in oxidising buffer and in 10 mM DTT
[2] = molecular target: T1, full length chicken N-cadherin with the mutation D27C expressed on K562 cells (chicken, UniProt P10288 165-912, D27C); assay: Protein A Dynabeads coated with dimeric D27C N-cadherin-Fc mixed with K562 transfectants
T1 construct: whole, on cells; also called K562 D27C
T1 sequence (looked up): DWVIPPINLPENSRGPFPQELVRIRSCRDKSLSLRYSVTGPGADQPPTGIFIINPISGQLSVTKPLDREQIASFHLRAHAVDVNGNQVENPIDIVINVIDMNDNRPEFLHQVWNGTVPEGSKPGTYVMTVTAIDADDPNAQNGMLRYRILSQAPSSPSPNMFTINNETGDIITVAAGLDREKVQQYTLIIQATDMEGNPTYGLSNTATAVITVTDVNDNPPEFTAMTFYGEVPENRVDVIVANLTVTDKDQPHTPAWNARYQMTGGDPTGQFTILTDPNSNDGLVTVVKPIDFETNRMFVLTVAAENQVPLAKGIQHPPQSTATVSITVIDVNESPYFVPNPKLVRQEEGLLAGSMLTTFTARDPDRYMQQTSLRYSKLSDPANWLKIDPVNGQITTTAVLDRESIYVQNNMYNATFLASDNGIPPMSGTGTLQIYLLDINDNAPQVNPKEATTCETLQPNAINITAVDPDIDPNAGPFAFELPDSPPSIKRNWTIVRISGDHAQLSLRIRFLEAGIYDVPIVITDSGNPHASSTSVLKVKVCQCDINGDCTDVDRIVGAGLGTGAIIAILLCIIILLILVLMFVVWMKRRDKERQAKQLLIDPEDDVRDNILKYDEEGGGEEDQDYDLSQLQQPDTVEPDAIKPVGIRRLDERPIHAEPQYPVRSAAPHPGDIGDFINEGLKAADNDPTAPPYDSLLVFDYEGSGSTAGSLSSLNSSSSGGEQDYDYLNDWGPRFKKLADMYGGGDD
Method: (§1) In an alternative protocol, Dynabeads (Dynal) coupled to Protein A were coated with dimeric N-cadherin-Fc (1 μg/ml), bearing the mutation D27C, for 1 hour at room temperature in the presence of 0.1% Tween 20 and 4 mM EGTA (to prevent aggregation). The beads were then washed with HBSS. K562 transfectants expressing cell surface Ncadherin with the mutations D1C, R25C or D27C, were treated with 10 mM DTT for 15 minutes at 37° C., then washed and resuspended in HBSS without DTT. Cells ([…]) were mixed with 3 μl of beads coated with mutant N-cadherin-Fc in a final volume of 100 μl HBSS. Cells and beads were incubated together at room temperature for 2 hours with slow rotation to allow adhesion. Approximately five beads became attached to each cell and there was some clumping of attached and unattached beads. Iodoacetamide, 2 μl of 1.0M solution, was then added to alkylate free sulphydryl groups. The samples were then spun down at 1500 g and the cells were lysed in HBSS, 0.075% SDS, 1% NP40, 0.2 mM AEBSF, for 4 minutes on ice. Beads were then isolated with a magnet and washed twice with lysis buffer. Disulphide-bonded complexes between cellular cadherin and the Fc-fusion protein were analysed by SDS-PAGE and immunoblotting for cadherin cytoplasmic domain as described above. To ensure equal loading, membranes were stripped and re-assayed with anti-Human Fc.

[3] = molecular target: T2, full length chicken N-cadherin with the mutation R25C expressed on K562 cells (chicken, UniProt P10288 165-912, R25C); assay: as above
T2 construct: whole, on cells; also called K562 R25C
T2 sequence (looked up): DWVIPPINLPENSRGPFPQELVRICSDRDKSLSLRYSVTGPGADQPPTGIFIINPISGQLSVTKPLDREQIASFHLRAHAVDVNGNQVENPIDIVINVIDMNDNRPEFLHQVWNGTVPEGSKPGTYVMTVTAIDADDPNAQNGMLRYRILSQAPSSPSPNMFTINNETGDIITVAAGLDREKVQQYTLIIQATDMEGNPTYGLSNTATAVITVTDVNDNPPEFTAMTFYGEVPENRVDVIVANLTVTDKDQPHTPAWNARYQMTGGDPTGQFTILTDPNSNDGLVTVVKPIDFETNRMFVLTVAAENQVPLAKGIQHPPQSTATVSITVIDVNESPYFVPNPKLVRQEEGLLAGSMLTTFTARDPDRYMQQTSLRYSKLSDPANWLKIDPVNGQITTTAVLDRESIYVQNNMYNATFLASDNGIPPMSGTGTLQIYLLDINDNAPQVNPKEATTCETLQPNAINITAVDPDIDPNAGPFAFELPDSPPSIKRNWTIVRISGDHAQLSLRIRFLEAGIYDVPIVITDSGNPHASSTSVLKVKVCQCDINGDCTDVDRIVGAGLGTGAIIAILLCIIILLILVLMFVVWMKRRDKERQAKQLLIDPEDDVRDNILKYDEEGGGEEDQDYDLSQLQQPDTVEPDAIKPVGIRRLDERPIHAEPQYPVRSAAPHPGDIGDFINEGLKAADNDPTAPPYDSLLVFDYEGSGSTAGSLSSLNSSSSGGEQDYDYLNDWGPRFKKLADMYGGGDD
Method: as §1

[4] = molecular target: T3, full length chicken N-cadherin with the mutation D1C expressed on K562 cells (chicken, UniProt P10288 165-912, D1C); assay: as above
T3 construct: whole, on cells; also called D1C cells; K562 D1C
T3 sequence (looked up): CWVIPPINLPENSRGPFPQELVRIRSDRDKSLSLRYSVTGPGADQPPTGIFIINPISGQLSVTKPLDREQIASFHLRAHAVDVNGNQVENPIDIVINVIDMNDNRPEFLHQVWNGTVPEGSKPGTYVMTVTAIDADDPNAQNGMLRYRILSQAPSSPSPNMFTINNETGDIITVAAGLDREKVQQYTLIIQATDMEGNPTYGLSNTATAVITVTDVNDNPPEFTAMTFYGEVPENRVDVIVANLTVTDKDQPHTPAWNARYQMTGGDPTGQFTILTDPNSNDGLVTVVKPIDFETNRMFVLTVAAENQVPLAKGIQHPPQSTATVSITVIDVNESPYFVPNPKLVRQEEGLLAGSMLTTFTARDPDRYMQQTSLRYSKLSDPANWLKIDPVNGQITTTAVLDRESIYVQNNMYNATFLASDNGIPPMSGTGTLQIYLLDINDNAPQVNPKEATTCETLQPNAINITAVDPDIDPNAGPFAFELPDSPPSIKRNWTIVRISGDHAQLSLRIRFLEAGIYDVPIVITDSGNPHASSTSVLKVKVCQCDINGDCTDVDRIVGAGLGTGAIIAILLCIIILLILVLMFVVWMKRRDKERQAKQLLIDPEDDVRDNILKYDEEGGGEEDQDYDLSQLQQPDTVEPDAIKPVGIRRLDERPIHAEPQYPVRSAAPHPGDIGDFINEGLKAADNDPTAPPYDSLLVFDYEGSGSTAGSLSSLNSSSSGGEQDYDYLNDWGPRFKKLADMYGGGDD
Method: as §1

[5] = molecular target: T4, human N-cadherin naturally expressed on DX3 melanoma cells (human, UniProt P19022 160-906); assay: adhesion of DX3 cells to coated monomeric N-cadherin-Fc, oxidising buffer
T4 construct: also called DX3 Cells; N-cadherin+ve DX3 melanoma cells
T4 sequence: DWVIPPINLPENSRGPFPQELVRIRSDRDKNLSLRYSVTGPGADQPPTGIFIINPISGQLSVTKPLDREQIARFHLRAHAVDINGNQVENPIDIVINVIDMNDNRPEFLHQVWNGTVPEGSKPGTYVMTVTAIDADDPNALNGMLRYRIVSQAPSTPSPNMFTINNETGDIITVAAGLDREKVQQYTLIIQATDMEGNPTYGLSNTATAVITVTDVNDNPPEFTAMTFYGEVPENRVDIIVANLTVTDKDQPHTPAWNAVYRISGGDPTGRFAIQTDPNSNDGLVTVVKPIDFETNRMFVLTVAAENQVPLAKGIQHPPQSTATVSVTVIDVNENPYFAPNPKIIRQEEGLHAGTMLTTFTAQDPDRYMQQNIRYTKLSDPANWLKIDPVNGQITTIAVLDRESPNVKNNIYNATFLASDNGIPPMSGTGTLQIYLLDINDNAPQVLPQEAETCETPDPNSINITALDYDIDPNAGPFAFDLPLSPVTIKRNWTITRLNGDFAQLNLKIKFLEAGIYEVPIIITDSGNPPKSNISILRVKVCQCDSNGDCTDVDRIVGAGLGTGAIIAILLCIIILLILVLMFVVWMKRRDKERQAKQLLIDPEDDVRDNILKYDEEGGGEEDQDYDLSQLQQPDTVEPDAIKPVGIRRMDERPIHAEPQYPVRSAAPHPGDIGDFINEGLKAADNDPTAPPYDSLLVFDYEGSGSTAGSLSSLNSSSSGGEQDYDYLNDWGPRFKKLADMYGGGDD
Method: Monomeric or dimeric N-cadherin-Fc fusion protein in Cos cell supernatants was added as described for the ELISA assay. DX3 Cells, a human melanoma cell line which expresses N-cadherin, were dissociated with Cell Dissociation Solution (Sigma, code C5789), resuspended in HBSS with 2% FCS and assessed for adhesion to wild type or mutant N-cadherin-Fc as previously described (Corps et al., 2001). Microscopic examination established that the cells were present as a single cell suspension as they settled onto the plate. For assays conducted in reducing conditions, 10 mM DTT was present during the adhesion and washing steps. Determinations were conducted in triplicate and results are presented as mean +/−sem.

[6] = molecular target: T3, full length chicken N-cadherin with the …; assay: cell adhesion to coated monomeric N-cadherin-Fc, then non-reducing SDS-PAGE and immunoblot
Method: Monomeric N-cadherin-Fc (1 μg/ml) bearing the three alternative cysteine point mutations, D1C, R25C or D27C, was immobilised on 96-well plates with goat antihuman IgG Fe as previously described for E-cadherin-Fc (Corps et al., 2001). Unbound cadherin was removed by washing with HBSS, 0.1% BSA, followed by HBSS alone. The plates were not blocked with additional protein. K562 transfectants expressing N-cadherin bearing complementary or non-complementary point mutations (6×10^4 Cells in 100 μl HBSS containing 10 mM DTT), in single cell suspension, were added to the coated wells which contained 100 μl HBSS. The final concentration of DTT was therefore 5 mM DTT during the adhesion stage. The cells were allowed to settle for 10 min at room temperature before incubation at 37° C. for 30 minutes to complete adhesion. […] Adherent cells from a pool of 4 wells for each experimental condition were then solubilised in sample buffer for SDS-PAGE and analysed on NuPAGE Novex gradient gels, 3-8% or 4-12%, (Invitrogen), under nonreducing or reducing conditions. Cellular cadherin was detected by immunoblotting using rabbit pan anti-cadherin antiserum specific for the cytoplasmic domain. Alternatively, N-cadherin-Fc fusion protein was detected with rabbit anti-human IgG, Fc-specific (Pierce, code 31142). […]

% cells adhering [1]: 65%
Molecule: wild type monomeric chicken N-cadherin-Fc (mutations F405A and Y407A in the CH3 domain of Fc) (from UniProt P10288 165-729) (Fc fusion)

beads attached to each cell [2]: ~5 beads per cell | beads attached to each cell [3]: ~5 beads per cell | beads attached to each cell [4]: ~5 beads per cell
B1: chicken N-cadherin-Fc fusion protein with the mutation D27C, dimeric (conventional fusion protein dimerised via Fc), coated to Protein A magnetic beads (Fc fusion, UniProt P10288 165-728, looked up)
chain: DWVIPPINLPENSRGPFPQELVRIRSCRDKSLSLRYSVTGPGADQPPTGIFIINPISGQLSVTKPLDREQIASFHLRAHAVDVNGNQVENPIDIVINVIDMNDNRPEFLHQVWNGTVPEGSKPGTYVMTVTAIDADDPNAQNGMLRYRILSQAPSSPSPNMFTINNETGDIITVAAGLDREKVQQYTLIIQATDMEGNPTYGLSNTATAVITVTDVNDNPPEFTAMTFYGEVPENRVDVIVANLTVTDKDQPHTPAWNARYQMTGGDPTGQFTILTDPNSNDGLVTVVKPIDFETNRMFVLTVAAENQVPLAKGIQHPPQSTATVSITVIDVNESPYFVPNPKLVRQEEGLLAGSMLTTFTARDPDRYMQQTSLRYSKLSDPANWLKIDPVNGQITTTAVLDRESIYVQNNMYNATFLASDNGIPPMSGTGTLQIYLLDINDNAPQVNPKEATTCETLQPNAINITAVDPDIDPNAGPFAFELPDSPPSIKRNWTIVRISGDHAQLSLRIRFLEAGIYDVPIVITDSGNPHASSTSVLKVKVCQCDINGDCTDVDRIVGAGLGT
notes: extracellular domain; also called dimeric N-cadherin-Fc D27C; D27C beads; not shown: hinge region, CH2 and CH3 domains of human IgG1 heavy chain (vector pIgSig)

binding result [5]: binds | binding result [6]: binds
B2: monomeric chicken N-cadherin-Fc with the mutation R25C (Fc fusion, UniProt P10288 165-728, looked up)
chain: DWVIPPINLPENSRGPFPQELVRICSDRDKSLSLRYSVTGPGADQPPTGIFIINPISGQLSVTKPLDREQIASFHLRAHAVDVNGNQVENPIDIVINVIDMNDNRPEFLHQVWNGTVPEGSKPGTYVMTVTAIDADDPNAQNGMLRYRILSQAPSSPSPNMFTINNETGDIITVAAGLDREKVQQYTLIIQATDMEGNPTYGLSNTATAVITVTDVNDNPPEFTAMTFYGEVPENRVDVIVANLTVTDKDQPHTPAWNARYQMTGGDPTGQFTILTDPNSNDGLVTVVKPIDFETNRMFVLTVAAENQVPLAKGIQHPPQSTATVSITVIDVNESPYFVPNPKLVRQEEGLLAGSMLTTFTARDPDRYMQQTSLRYSKLSDPANWLKIDPVNGQITTTAVLDRESIYVQNNMYNATFLASDNGIPPMSGTGTLQIYLLDINDNAPQVNPKEATTCETLQPNAINITAVDPDIDPNAGPFAFELPDSPPSIKRNWTIVRISGDHAQLSLRIRFLEAGIYDVPIVITDSGNPHASSTSVLKVKVCQCDINGDCTDVDRIVGAGLGT
notes: extracellular domain; not shown: hinge region, CH2 and CH3 domains of human IgG1 heavy chain (vector pIgSig)

From patent US20080274950A1 (BABRAHAM INSTITUTE, published 2008)
